Measured values reported in the nanobody polyreactivity screen of Harvey et al. (2022).

Test: yeast display, Sf9 membrane polyspecificity reagent, FACS + sequencing; frameworks hold sequencing errors
How it was run: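 Galactose-induced (36–48 hours) yeast carrying a synthetic nanobody display library were exposed to 10% biotinylated, detergent-solubilized Sf9 membrane reagent at 4 °C for 1 hour. FACS followed streptavidin microbead enrichment, using low and high (top ~1%) gates for expression (anti-HA) and reagent binding (streptavidin). Colony PCR, MiSeq 2 × 250 sequencing and CDR-length filtering followed. Labels for polyreactivity reflect the gate of origin.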

Sequence | polyreactivity (PSR sort gate)
QVQLVESGGGLVQAGCSLRLSCAACGSIFGPYSMGWYRQAPAKEREFVAAISRSGTSTNYADSVKGRFTISRDNAKNTVYLQMNSLKPEDTAVYYCATAAFIVGSSRTYDYWGQGTQVTVSS | high polyreactivity
QVQLVESGGGLVQAGCSLRLSCAASGFTFDGYAMVSYRQAPGKERELVAAISDSGDSTYYADSVKGRFTISRDNAKNTVYLQMISLKPEDTADYYCAAALGYYWSDYFAYDYWGQGTQVTVSS | low polyreactivity
QVQLVESGGGLVQAGCSLRLSCAASGFTFIQYAMGWYRPAPGKERELVAAITRSGGRTYYADSVKGRFTISRDNAKNTVYLQMNSLKPEDTAVYYCNAVSRIYPGDEFGYWGQGTQVTVSS | high polyreactivity
QVQLVESGGGLVQAGCSLRLSCAASGRIFDTYAKGWYRQAPGKERELVATITAGTSTNYADSVKGRFTISRDNAKNTVYLKMNCLKPEDTAVYYCAASKYGSPPYRSYVYWGQGTQVSVSS | high polyreactivity
QVQLVESGGGLVQAGCSLRLSCAASGRIFSRNAMGWYRQAPGKERELVAVITKRGGSTYYADSVKGRFTISRDKAKNTVYLQMNSLKPEDTAVYYCNAVPRRGIAFNHWGQGTHVTVSS | high polyreactivity
QVQLVESGGGLVQAGCSLRLSCAASGRIFTTYAMGWYRQAPGKERELVASIDSRGDSTYADSVKGRFTISRDNAKNTVYLQMNSLKPEDTAVYYCAADSWYTWFDSWGQGTQVTVSS | low polyreactivity
QVQLVESGGGLVQAGCSLRLSCAASGRIFVKYTMGWYRQAPGKERELVAAIDFDTDSKYYADSVKGRFTFSRDNAKNTVYFQMNSLNPEDTAVYYCAADSYYYGYQGQTQYGWVWYDYWGQVTQVTVSS | low polyreactivity
QVQLVESGGGLVQAGCSLRLSCAASGRIYRRYAMGWYRQAPGKERELVAAISSRGGRTYYADSVKGRITISRDNAMNTVYLQMNSLKQEDTAVYYCAARPAGYGHYKYYYWGQGTQVTVSS | high polyreactivity
QVQLVESGGGLVQAGCSLRLSCAASGRPFWYNAMGGYRQAPGNVRELVAGISGSGGSTYYADSVKGRFTISRDNAKNTVYLQMNSLKPEDTAVYYCAATTGYSRSYRYGYWGQGTQVTVSS | high polyreactivity
QVQLVESGGGLVQAGCSLRLSCAASGRTFLLYAMGWYRQAPGKERELVAAITWGGGSTYYADSVKGRFTISRDNAKNIVYLQMNCLKPEDTAVYYCNAYYWSRMDYWGQGTQVTVSS | low polyreactivity
QVQLVESGGGLVQAGCSLRLSCAASGRTFVYNAMGWYRKAPGKERELVAGITGSGDSTYYADSVKGRFTISRDNAKNTVYLQMNSMKPEDTAVYYCNQLVEEDYWGQGTQVTVSS | low polyreactivity
QVQLVESGGGLVQAGCSLRLSCAASGSIFAPYAMGWYRQAPGKERELVAAISYSGGSTYYADSVKGRLTISRDNAKNTVYLQMNSLKPEDTAVYYCAARVLHQDFYKRYYWGQGTQVTVSS | high polyreactivity
QVQLVESGGGLVQAGCSLRLSCAASGSIFDTNAKGWYRQAPGKERELVAAIYDNTGRTYYADSVKGRFTISRDNSKNTVYLQMNSQKPEDTAVYYCNAPRYYWISFARWPASYYYWGQGTQVTVSS | high polyreactivity
QVQLVESGGGLVQAGCSLRLSCAASGSIFSQSAMGWYRQAPGKERELVAAISARGTSTYYADSVKGRFTISRDNAKNTVYLQMNSLKPEDTAVYYCNTVRPYSSSSSRYYYWGQGTQVTVSS | high polyreactivity
QVQLVESGGGLVQAGCSLRLSCAASGSIFSYYDMGSYRQAPGKERELVAGISRGGSTNYADSVKGRFTISRDNAKNTVYLQMNILKPEDTAVYYCNADQSSRTYPFRLSRRSLLYGYWGLGTQVTVSS | low polyreactivity
QVQLVESGGGLVQAGCSLRLSCAASGSIFYGYAMGWYRQAPGKERELVARITGSGGDTSYADSVKGRFTISRDNAKNTVYLQMNSLKPEDTAVYYCNTDLYITYTLYTGSEYDYWGQGTQVTVSS | low polyreactivity
QVQLVESGGGLVQAGCSLRLSCAASGSIFYRNPMVWYRQAPGKERELVAAISSDGSTNYADSVKGRFTISRDNAKNTVYLQMNSLKPEDTAVYYCAAPWTQILDYWGQGTQVTVSS | low polyreactivity
QVQLVESGGGLVQAGCSLRLSCAASGSILWHYAKGWYRQAPGKERELVAFISSSGSTYYADSVKGRFTISRDNAKNTVYLQMNSLKPEDTAVDYCNAYRLYSGYVPYDYWGQCTQVTVSS | high polyreactivity
QVQLVESGGGLVQAGCSLRLSCAASGSIYPYAMGCYRQAPGKESELVAAINFNGGRTYYAHSVNGRFTISRDNAKNTVYLQMTSLKPDVTAFYYCAARISVYSTLPNDFDYWGQGTQVTVSS | high polyreactivity
QVQLVESGGGLVQAGCSLRLSCAASGSTFPYNTMGWYRQAPGKERELVAAITSSAGSTYYADSVKGRFTISRDNAKNTVYLQMNSLKPDDTAVYYCAADYIVWKGSNSYYYAGYYYWGQGTQVTVSS | low polyreactivity
QVQLVESGGGLVQAGCSLRLSCAASGSTFRWYAMGWYRPAPGKEREFVAAITSSGGSTYYADSVKGRFTISRDNAKNTVYLQMNSLKPEDTAVYYCNRRYQPYSYDYWGQGTQVTVSS | high polyreactivity
QVQLVESGGGLVQAGCSLRLSCAATGFIFKRNAMGWYRQAPGKERELVAAITKSGVNSYYADSVKGRFTISRDNAKNTVYLLMNSLKPEDTAVYYCAARGNRKQAWYKYNYCGQGTQVTVSS | high polyreactivity

Sequence | polyreactivity (PSR sort gate)
QVQLVESGGGLVQAGCSLRLSCAAYGSIFSYNAMGWYRQAPGKERELVASISWSGGRTFYADSVKGRFTISRDNAKNTVYLQMNSLKPEDTAVYYCAFRHYSTYYSRFGYWGQGTKVTVSS | high polyreactivity
QVQLVESGGGLVQAGCSLRLSCAPSGSTFKVNDMGWYRQAPGKERELVAAIDKSGGTTYYADSVKGRFTLSRDNAKNTVYYQMNSLKPEDTAVYYCAADVIYEMDYWGQGTQVTVSS | low polyreactivity
QVQLVESGGGLVQAGCSLRLSCDASGRIFVTNAMGWYRQAPGKERELVAANSYRGGRTYYADSVKGRFTISRDNAKNTVYLQMNSLKPEDTAVYYCNAVTRWPFDYWGQGTQVTVSS | high polyreactivity
QVQLVESGGGLVQAGCSLRLSCSASGRIFGYYAKGWYRQAPGKERELVARISGRGGSTYYADSVKVRFSISRDNAQKTVILQMNSLNPEDTAVYYCNVVLSFWKYYAYDQGDYWGQGTQVTVSS | low polyreactivity
QVQLVESGGGLVQAGCSLRLSPASGSTLAGNTMGWYRQAPGKERELVAAINDSGGSTYYADSVKGRFTISRDNAKNSVNLQMNSLKPEDTGVYYCNADGSAYIEDGYDYWGQGTQVTVSS | low polyreactivity
QVQLVESGGGLVQAGCSLRLSSAASGSTFLGYAMGWYRQAPGKERELVAAITYSAGSTYYADSVKGRFTISRDNAKNTVYLQMNSLKPEDTAVYYCSKRYSGYDHWGQGTQVTVSS | low polyreactivity
QVQLVESGGGLVQAGCSLRLTCAASGSTFKKYAKGWYRQAPGKERDFVAAISRGGRTYYAYSVKGRFTISRDNAKNTVYLQMNSLKPEDTAVYYCAAETFGYQEVYFWGQGTQVTVSS | high polyreactivity
QVQLVESGGGLVQAGCSLSLSCAASGITFRSYAKGWYRQAPGKERELVAAIRSGGSTSYADSVKGRFTISRDNAKYTVYLQMNSLKPEDTAVYYCAAGGYVPLPDITFWKFGYWGQGTQGTVSS | low polyreactivity
QVQLVESGGGLVQAGCSLSLSCAASGSIFGRYTMGWYRQAPGKERELVAAINLRGGSTYYADSVKGRFTISRDNAKNTVYLQMNSLKPEDTAVYYCATVGWKQSAYDYWGQGTQVTVSS | low polyreactivity
QVQLVESGGGLVQAGCSRRLSCAASGSIFYHNAMGWYRQAPGKERELVAAISGRGGSTYYADSVKGRFTISRDNAKNTVYLQMNSLKPEDTAVYYCAADARYQNGGLYYWGQGPQVTVSS | high polyreactivity
QVQLVESGGGLVQAGCTLRISCAPSGSIFVYNDMGWSRQAPGKERELVASISNGDNTNYADSVKGRFTISRDNAKNTVYLQMNSLKPEDTAVYYCAADGYIGSVVAYGERDYWGQGTQVTVSS | low polyreactivity
QVQLVESGGGLVQAGDSLRLICAASGFIFDNYAMGWYRQAPGKERELVAAISQSGTSTYYADSVKVRFTISRDIAKNTVYLQLISLKPEDTAVYYCNVVPTGVHIFDYWGQGTQVTVSS | low polyreactivity
QVQLVESGGGLVQAGFSLRLSCAASGSILGSYVMGWCRQAPGKESELVAASSYSTSATYYADSVKGRFTISRDNAKNTVYLQMNSLKPEDPAVYYCNADLGSWYTWYDDWGQGTQVTVSS | high polyreactivity
QVQLVESGGGLVQAGGCLRLSCAASGFIFSKNVMGWYRQAPGTERELVARITRSGGTTNYADSVKGRFTISRDNAKNTVYLQMNSLNPGDTAVYFCAARGYGYTSITWYDYWGQGTQVTVSS | high polyreactivity
QVQLVESGGGLVQAGGCLRLSCAGSRSTFHYYTMGWYRQAPGKERELVAAISWRGTSTYYADSVKGRFTISRDNAKNTLYVQMNSLKPEDTGVYYCAVRSSPGAGYYYWGQGTQGTVSS | high polyreactivity
QVQLVESGGGLVQAGGGLRLSCAASGRIFAGYAMGWYRQAPGKEREFVAAISRSGVSTYYADSVKGRFTISRDNAKNTVYLQMNSLKPEDTAVYYCNVYKGNVVEHDYWGQGTQVTVSS | high polyreactivity
QVQLVESGGGLVQAGGILLLSCAASRRIFGVYAMGWYIQAPGKERELVATIRSSGTRKNYADSLKGRFTISRDNAKNTVYLQLNSLKPEDTAVYYCAAGGRPYKLDFTRSDYWGHGTQVTVSS | low polyreactivity
QVQLVESGGGLVQAGGILRLRCAASGSTYGYYAMGWSRQAPGKERELVAAISGSGGRTYYADSVKGRFTISRDNAKNTVYLQMNSLKPEDTAVYYCNTATKNIYDYCGQGTQVTVSS | high polyreactivity
QVQLVESGGGLVQAGGILRLSCAASGFIFRDYAMGWYRQAPGKERELVAAISFTDGTTYYADSVKGRFTISRDNAKNTVYLQMNSLKPEDTAVYYCAAGYTGYTYTELDYWGQGTQVTVSS | low polyreactivity
QVQLVESGGGLVQAGGILRLSCAASGFIFYHYAMGWYRQAPGKERELVASITSGGRTYYADSVKGRFTISRDNAKNTVSLQMNRLKPEDTAVYYCAAAYYYYSSPRFTTGMDYWGQGTQVTVSS | high polyreactivity
QVQLVESGGGLVQAGGILRLSCAASGFTFGLYAMGWYRQAPGTERELVAAIRNNGGSTYYADSVKGRFTISRDNAKNTVYLQMNSLKPDDTAVYYCAKKSFFTGRWWYDYWGQGTQVSVSS | high polyreactivity
